Measured values taken from patent publication EP2762886A1.

Target: 4E wild type (overexpressed in stably transfected NIH3T3 cells)
Experiment: cell-based or functional assay

“human promyelocytic leukemia protein PML (overexpressed from pLINKSV40-PML) (from UniProt P29590 1-882)” showed a viability of serum deprived cells (annexin V / propidium iodide flow cytometry) (% viable cells) of 40.
